Assay [1] addresses Clover-PPARγ1 (human peroxisome proliferator-activated receptor gamma isoform 1, N-terminally labeled with Clover) (human) (UniProt P37231).
Assay [2] has the same target. The experiment in a line: FRET or BRET; flow cytometry-based FRET (Clover donor, mRuby2 acceptor) in living, stably transduced HEK293T cells; percent FRET-positive among Clover/mRuby2-double positive cells and FRET efficiency from fluorescence medians; N-CoR2 WT cells also treated 24 h with DMSO, 1 µM rosiglitazone, 10 µM GW9662 or both. (BRET reads energy transfer from a luciferase to a nearby fluorophore.)

Sequence of UniProt P37231 (P37231 29-505): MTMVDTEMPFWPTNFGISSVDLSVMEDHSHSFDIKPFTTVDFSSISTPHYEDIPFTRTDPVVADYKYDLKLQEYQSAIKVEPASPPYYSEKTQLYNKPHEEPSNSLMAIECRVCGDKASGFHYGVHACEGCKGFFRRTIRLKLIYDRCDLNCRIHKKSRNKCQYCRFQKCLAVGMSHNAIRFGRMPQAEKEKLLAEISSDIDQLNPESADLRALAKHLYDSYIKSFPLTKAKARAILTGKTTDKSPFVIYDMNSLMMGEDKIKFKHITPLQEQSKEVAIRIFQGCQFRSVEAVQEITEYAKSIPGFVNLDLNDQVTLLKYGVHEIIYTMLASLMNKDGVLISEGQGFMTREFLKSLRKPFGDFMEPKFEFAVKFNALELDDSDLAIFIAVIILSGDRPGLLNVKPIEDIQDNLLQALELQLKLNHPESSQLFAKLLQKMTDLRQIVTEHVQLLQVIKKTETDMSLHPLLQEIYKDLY

In turn, “N-CoR2 WT-mRuby2 (N-terminally truncated human nuclear receptor co-repressor 2 with ID2 and ID1, C-terminally labeled with mRuby2) (domain or fragment)” displayed a PPARγ-dependent transactivation (PPRE reporter p(AOX)3-TK-Luc) in HEK293T cells, 1 µM rosiglitazone 24 h against DMSO in assay [1] of 3.5 fold. In assay [2], this substance came in with a percent FRET-positive cells of 70%.

Values taken from PMC6735382.
